Measured values taken from IntAct's records for PubMed 20531392.

B1: Peroxisomal biogenesis factor 19 (Homo sapiens), P40855 (parent)
chain: MAAAEEGCSVGAEADRELEELLESALDDFDKAKPSPAPPSTTTAPDASGPQKRSPGDTAKDALFASQEKFFQELFDSELASQATAEFEKAMKELAEEEPHLVEQFQKLSEAAGRVGSDMTSQQEFTSCLKETLSGLAKNATDLQNSSMSEEELTKAMEGLGMDEGDGEGNILPIMQSIMQNLLSKDVLYPSLKEITEKYPEWLQSHRESLPPEQFEKYQEQHSVMCKICEQFEAETPTDSETTQKARFEMVLDLMQQLQDLGHPPKELAGEMPPGLNFDLDALNLSGPPGASGEQCLIM
B2: Peroxisomal biogenesis factor 19 (Homo sapiens), P40855 (parent)
chain: B1 chain
partner: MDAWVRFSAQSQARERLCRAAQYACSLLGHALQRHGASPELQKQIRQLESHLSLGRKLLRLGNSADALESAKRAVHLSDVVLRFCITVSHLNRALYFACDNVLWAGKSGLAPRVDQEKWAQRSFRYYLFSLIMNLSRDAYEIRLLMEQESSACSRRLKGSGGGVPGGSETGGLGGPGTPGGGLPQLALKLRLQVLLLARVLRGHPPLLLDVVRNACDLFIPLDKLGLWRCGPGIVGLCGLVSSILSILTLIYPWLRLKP

Variants of: B1
Details: with pex13_human PEX13, Q92968
pex13_human PEX13, Q92968, sequence (Q92968 whole entry): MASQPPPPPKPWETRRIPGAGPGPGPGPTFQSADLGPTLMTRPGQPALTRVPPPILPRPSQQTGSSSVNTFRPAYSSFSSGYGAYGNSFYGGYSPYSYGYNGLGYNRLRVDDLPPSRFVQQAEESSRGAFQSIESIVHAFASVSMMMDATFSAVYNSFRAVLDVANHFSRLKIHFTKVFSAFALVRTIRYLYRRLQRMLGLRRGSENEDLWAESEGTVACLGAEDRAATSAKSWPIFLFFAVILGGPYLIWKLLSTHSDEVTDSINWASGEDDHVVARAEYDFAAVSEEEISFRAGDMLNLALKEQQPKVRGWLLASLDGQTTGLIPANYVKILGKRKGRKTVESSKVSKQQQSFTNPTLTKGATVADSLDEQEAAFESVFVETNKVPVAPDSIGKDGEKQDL

Row | effect of a mutation on the interaction | Variant
1 | disrupting interaction | MAAAEEGCSVGAEADRELEELLESALDDFDKAKPSPAPPSTTTAPDASGPQKRSPGDTAKDALFASQEKFFQELFDSELASQATAEFEKAMKELAEEEPHLVEQFQKLSEAAGRVGSDMTSQQEFTSCLKETLSGLAKNATDLQNSSMSEEELTKAMEGLGMDEGDGEGNILPIMQSIMQNWLSKDVLYPSLKEITEKYPEWLQSHRESLPPEQFEKYQEQHSVMCKICEQFEAETPTDSETTQKARFEMVLDLMQQLQDLGHPPKELAGEMPPGLNFDLDALNLSGPPGASGEQCLIM [L182W]

Variants of: B1
Details: with pex13_human PEX13, Q92968
Remark: another data set of the same source

Row | effect of a mutation on the interaction | Variant
2 | decreasing interaction | MAAAEEGCSVGAEADRELEELLESALDDFDKAKPSPAPPSTTTAPDASGPQKRSPGDTAKDALFASQEKFFQELFDSELASQATAEFEKAMKELAEEEPHLVEQFQKLSEAAGRVGSDMTSQQEFTSCLKETLSGLAKNATDLQNSSMSEEELTKAMEGLGMDEGDGEGNILPIMQSIMQNPLSKDVLYPSLKEITEKYPEWLQSHRESLPPEQFEKYQEQHSVMCKICEQFEAETPTDSETTQKARFEMVLDLMQQLQDLGHPPKELAGEMPPGLNFDLDALNLSGPPGASGEQCLIM [L182P]

Variants of: B1
Details: with pex13_human PEX13, Q92968
Remark: another data set of the same source

Row | effect of a mutation on the interaction | Variant
3 | decreasing interaction | MAAAEEGCSVGAEADRELEELLESALDDFDKAKPSPAPPSTTTAPDASGPQKRSPGDTAKDALFASQEKFFQELFDSELASQATAEFEKAMKELAEEEPHLVEQFQKLSEAAGRVGSDMTSQQEFTSCLKETLSGLAKNATDLQNSSMSEEELTKAMEGLGMDEGDGEGNILPIMQSWMQNLLSKDVLYPSLKEITEKYPEWLQSHRESLPPEQFEKYQEQHSVMCKICEQFEAETPTDSETTQKARFEMVLDLMQQLQDLGHPPKELAGEMPPGLNFDLDALNLSGPPGASGEQCLIM [I178W]

Variants of: B1
Details: with pex13_human PEX13, Q92968
Remark: another data set of the same source

Row | effect of a mutation on the interaction | Variant
4 | disrupting interaction | MAAAEEGCSVGAEADRELEELLESALDDFDKAKPSPAPPSTTTAPDASGPQKRSPGDTAKDALFASQEKFFQELFDSELASQATAEFEKAMKELAEEEPHLVEQFQKLSEAAGRVGSDMTSQQEFTSCLKETLSGLAKNATDLQNSSMSEEELTKAMEGLGMDEGDGEGNILPIMQSPMQNLLSKDVLYPSLKEITEKYPEWLQSHRESLPPEQFEKYQEQHSVMCKICEQFEAETPTDSETTQKARFEMVLDLMQQLQDLGHPPKELAGEMPPGLNFDLDALNLSGPPGASGEQCLIM [I178P]

Variants of: B2
Details: with px11b_human PEX11B

Row | effect of a mutation on the interaction | Variant
5 | disrupting interaction | MAAAEEGCSVGAEADRELEELLESALDDFDKAKPSPAPPSTTTAPDASGPQKRSPGDTAKDALFASQEKFFQELFDSELASQATAEFEKAMKELAEEEPHLVEQFQKLSEAAGRVGSDMTSQQEFTSCLKETLSGLAKNATDLQNSSMSEEELTKAMEGLGMDEGDGEGNILPIMQSWMQNLLSKDVLYPSLKEITEKYPEWLQSHRESLPPEQFEKYQEQHSVMCKICEQFEAETPTDSETTQKARFEMVLDLMQQLQDLGHPPKELAGEMPPGLNFDLDALNLSGPPGASGEQCLIM [I178W]

Variants of: B2
Details: with px11b_human PEX11B
Remark: another data set of the same source

Row | effect of a mutation on the interaction | Variant
6 | disrupting interaction | MAAAEEGCSVGAEADRELEELLESALDDFDKAKPSPAPPSTTTAPDASGPQKRSPGDTAKDALFASQEKFFQELFDSELASQATAEFEKAMKELAEEEPHLVEQFQKLSEAAGRVGSDMTSQQEFTSCLKETLSGLAKNATDLQNSSMSEEELTKAMEGLGMDEGDGEGNILPIMQSIMQNPLSKDVLYPSLKEITEKYPEWLQSHRESLPPEQFEKYQEQHSVMCKICEQFEAETPTDSETTQKARFEMVLDLMQQLQDLGHPPKELAGEMPPGLNFDLDALNLSGPPGASGEQCLIM [L182P]
